# Test results published in publication PMC6032869 (Allergy, 2018).
# T1: synthetic Bet v 1-derived peptide 5 (aa 130-160) (Betula pendula, UniProt P15494)
# T1 construct: Bet v 1, birch, Swissprot P15494, C-terminal peptide aa 130-160; also called C-terminal peptide 5; source: synthetic peptide
# T1 chain: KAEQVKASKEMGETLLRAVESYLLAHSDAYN
# B1: Bet v 1-specific IgG-derived ScFv H3-1 (scFv, V domains shown)
# VH: QVQLVQSGAEVKKPGSSVKVSCKASGGTFSSYAISWVRQAPGQGLEWMGRIIPILGIVNYAQKFQGRVTITADKSTSTAYMELSSLRSEDTAVYYCAREPLGYCSGGSCYPLHNGMDVWGQGTTVTVSS
# VL: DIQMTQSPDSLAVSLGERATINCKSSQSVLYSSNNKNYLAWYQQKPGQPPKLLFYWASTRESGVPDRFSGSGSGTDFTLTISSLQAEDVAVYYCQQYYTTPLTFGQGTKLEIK
# notes: VH of H3-1 (H3-1_HV); (Gly4Ser)3 linker; V kappa of H3-1 (H3-1_KV); Cloned in phagemid pCANTAB 5E; The E tag is named for the direct ELISA (detection with anti-E Tag antibody); A form with a C-terminal His tag was also constructed; also called ScFv (clone H3-1); H3-1 ScFv; source: also tested as soluble ScFv after conversion of phage clones; not shown: E tag, C-terminal, kept
# Assays:
# bovine serum albumin = target: T2, bovine serum albumin (Bos taurus, UniProt P02769); experiment: ELISA; allergens, fragments, peptides or BSA coated at 4 ug/mL in 1xPBS; blocked with 1xPBS/3% BSA; 1 ug/mL H3-1 added; bound ScFv traced with anti-E Tag antibody; conditions: both partners purified
# T2 construct: bovine serum albumin, control protein; also called BSA
# [1] = target: T1, synthetic Bet v 1-derived peptide 5 (aa …); experiment: as above; conditions: both partners purified
# [2] = target: T3, Mal d 1, Bet v 1-related allergen from apple (Malus domestica, UniProt Q9SYW3); experiment: ELISA; inhibition ELISA: plate-bound allergen (1 ug/mL) pre-incubated with 20 ug/mL H3-1 or control ScFv, then sera of birch pollen-allergic patients diluted 1:5; bound IgE detected; % reduction against control ScFv; conditions: both partners purified
# T3 construct: Mal d 1, apple allergen, Swissprot Q9SYW3; source: recombinant; materials described in Data S1
# [3] = target: T4, Aln g 1, Bet v 1-related allergen from alder (Alnus glutinosa, UniProt P38948); experiment: as above; conditions: both partners purified
# T4 construct: Aln g 1, alder pollen allergen, Swissprot P38948; source: recombinant; materials described in Data S1
# Target sequence in this assay (P38948 whole entry, looked up): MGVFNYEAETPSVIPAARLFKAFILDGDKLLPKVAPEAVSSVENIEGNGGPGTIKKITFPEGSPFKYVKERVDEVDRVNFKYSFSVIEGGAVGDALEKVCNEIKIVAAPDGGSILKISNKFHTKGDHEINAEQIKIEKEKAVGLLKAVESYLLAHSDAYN
# [4] = target: T5, Cor a 1, Bet v 1-related allergen from hazel (Corylus avellana, UniProt Q08407); experiment: as above; conditions: both partners purified
# T5 construct: Cor a 1, hazel allergen, Swissprot Q08407; source: recombinant; materials described in Data S1
# Target sequence in this assay (Q08407 whole entry, looked up): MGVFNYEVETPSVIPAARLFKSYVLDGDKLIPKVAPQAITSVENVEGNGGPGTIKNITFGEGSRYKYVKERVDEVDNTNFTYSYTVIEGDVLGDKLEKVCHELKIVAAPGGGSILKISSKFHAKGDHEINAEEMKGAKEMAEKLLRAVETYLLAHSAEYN
# [5] = target: T3, Mal d 1, Bet v 1-related allergen from …; experiment: SPR; Biacore 2000, 25°C; allergens amine-coupled to CM5 chip; reference cell BSA; H3-1 in HBS-EP pH 7.4 injected in twofold increasing concentrations at 30 uL/min; 1:1 interaction model; conditions: both partners purified
# [6] = target: T4, Aln g 1, Bet v 1-related allergen from …; experiment: as above; conditions: both partners purified
# [7] = target: T5, Cor a 1, Bet v 1-related allergen from …; experiment: as above; conditions: both partners purified
# [8] = target: T6, recombinant Bet v 1, major birch pollen allergen (Betula pendula (B. verrucosa), UniProt P15494); experiment: as above; conditions: both partners purified
# T6 construct: Bet v 1, major birch pollen allergen, Swissprot P15494; also called rBet v 1; source: recombinant; materials described in Data S1
# [9] = target: T3, Mal d 1, Bet v 1-related allergen from …; experiment: ELISA; inhibition ELISA: plate-bound allergen (1 ug/mL) pre-incubated with 20 ug/mL H3-1 or control ScFv, then sera of birch pollen-allergic patients diluted 1:5; bound IgE detected; % reduction against control ScFv; conditions: both partners purified; remark: listed apart in the source
# [10] = target: T4, Aln g 1, Bet v 1-related allergen from …; experiment: as above; conditions: both partners purified; remark: listed apart in the source
# Target sequence in this assay (P38948 whole entry, looked up): as the sequence (P38948 whole entry, looked up) above
# [11] = target: T5, Cor a 1, Bet v 1-related allergen from …; experiment: as above; conditions: both partners purified; remark: listed apart in the source
# Target sequence in this assay (Q08407 whole entry, looked up): as the sequence (Q08407 whole entry, looked up) above
# [12] = target: T6, recombinant Bet v 1, major birch pollen …; experiment: as above; conditions: both partners purified
# [13] = target: T6, recombinant Bet v 1, major birch pollen …; experiment: cell-based or functional assay
# T3 sequence (Q9SYW3 entry or part of it): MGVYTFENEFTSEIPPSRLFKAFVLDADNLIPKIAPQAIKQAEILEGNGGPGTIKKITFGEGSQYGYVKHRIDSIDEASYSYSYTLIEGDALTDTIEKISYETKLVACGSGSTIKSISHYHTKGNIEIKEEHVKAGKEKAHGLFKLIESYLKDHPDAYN
# T2 sequence (P02769 25-607): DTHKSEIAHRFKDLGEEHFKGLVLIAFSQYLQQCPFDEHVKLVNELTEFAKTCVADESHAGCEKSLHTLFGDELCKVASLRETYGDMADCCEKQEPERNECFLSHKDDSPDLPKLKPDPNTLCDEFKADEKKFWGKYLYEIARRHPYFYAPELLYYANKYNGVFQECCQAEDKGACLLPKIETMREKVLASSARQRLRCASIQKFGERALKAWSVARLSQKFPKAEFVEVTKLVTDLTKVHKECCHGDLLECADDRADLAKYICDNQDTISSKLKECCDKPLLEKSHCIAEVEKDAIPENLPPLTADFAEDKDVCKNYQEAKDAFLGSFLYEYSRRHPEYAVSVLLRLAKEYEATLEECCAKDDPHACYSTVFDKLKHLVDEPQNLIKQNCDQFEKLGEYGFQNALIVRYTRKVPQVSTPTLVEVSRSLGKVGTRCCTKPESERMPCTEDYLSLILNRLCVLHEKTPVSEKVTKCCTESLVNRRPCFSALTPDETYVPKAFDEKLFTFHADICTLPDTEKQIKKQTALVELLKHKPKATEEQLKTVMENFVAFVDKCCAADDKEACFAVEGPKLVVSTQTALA
binder,measurement,setting,value
B1,binding result,bovine serum albumin,no binding (tested: 1 μg/mL H3-1)
same,binding result,[1],binds
same,mean % inhibition of patients' IgE binding,[2],13.5%
same,mean % inhibition of patients' IgE binding,[3],11.9%
same,mean % inhibition of patients' IgE binding,[4],24.3%
same,Kd,[5],2.57 nM
same,koff,[5],0.000145 s⁻¹
same,kon,[5],56400 M⁻¹ s⁻¹
same,Kd,[6],2.96 nM
same,koff,[6],0.00112 s⁻¹
same,kon,[6],378000 M⁻¹ s⁻¹
same,Kd,[7],6.83 nM
same,koff,[7],0.000299 s⁻¹
same,kon,[7],43800 M⁻¹ s⁻¹
same,Kd,[8],0.622 nM
same,koff,[8],0.00022 s⁻¹
same,kon,[8],353000 M⁻¹ s⁻¹
same,"% inhibition of IgE binding, patient 1",[9],8.6%
same,"% inhibition of IgE binding, patient 5",[9],3.6%
same,"% inhibition of IgE binding, patient 9",[9],10.9%
same,"% inhibition of IgE binding, patient 10",[9],10.5%
same,"% inhibition of IgE binding, patient 11",[9],19.1%
same,"% inhibition of IgE binding, patient 12",[9],22.4%
same,"% inhibition of IgE binding, patient 13",[9],27.4%
same,"% inhibition of IgE binding, patient 16",[9],2.3%
same,"% inhibition of IgE binding, patient 17",[9],40.5%
same,"% inhibition of IgE binding, patient 18",[9],17.1%
same,"% inhibition of IgE binding, patient 19",[9],15.3%
same,"% inhibition of IgE binding, patient 20",[9],16.5%
same,"% inhibition of IgE binding, patient 21",[9],11.9%
same,"% inhibition of IgE binding, patient 22",[9],26.3%
same,"% inhibition of IgE binding, patient 23",[9],3%
same,"% inhibition of IgE binding, patient 24",[9],19.3%
same,"% inhibition of IgE binding, patient 25",[9],17.9%
same,"% inhibition of IgE binding, patient 26",[9],19.7%
same,"% inhibition of IgE binding, patient 27",[9],27.4%
same,"% inhibition of IgE binding, patient 28",[9],8.2%
same,"% inhibition of IgE binding, patient 29",[9],22.5%
same,mean % inhibition of patients' IgE binding,[9],16.1%
same,"% inhibition of IgE binding, patient 1",[10],8.2%
same,"% inhibition of IgE binding, patient 7",[10],6.3%
same,"% inhibition of IgE binding, patient 9",[10],15.3%
same,"% inhibition of IgE binding, patient 11",[10],22.5%
same,"% inhibition of IgE binding, patient 12",[10],14.5%
same,"% inhibition of IgE binding, patient 13",[10],11.4%
same,"% inhibition of IgE binding, patient 16",[10],16.3%
same,"% inhibition of IgE binding, patient 17",[10],25%
same,"% inhibition of IgE binding, patient 19",[10],16.5%
same,"% inhibition of IgE binding, patient 20",[10],6.9%
same,"% inhibition of IgE binding, patient 21",[10],13.4%
same,"% inhibition of IgE binding, patient 22",[10],37.1%
same,"% inhibition of IgE binding, patient 23",[10],6.2%
same,"% inhibition of IgE binding, patient 24",[10],12.9%
same,"% inhibition of IgE binding, patient 25",[10],17.5%
same,"% inhibition of IgE binding, patient 26",[10],23.7%
same,"% inhibition of IgE binding, patient 27",[10],26.1%
same,"% inhibition of IgE binding, patient 28",[10],26.1%
same,"% inhibition of IgE binding, patient 30",[10],10.7%
same,mean % inhibition of patients' IgE binding,[10],13.2%
same,"% inhibition of IgE binding, patient 1",[11],32.7%
same,"% inhibition of IgE binding, patient 5",[11],29%
same,"% inhibition of IgE binding, patient 7",[11],19%
same,"% inhibition of IgE binding, patient 9",[11],48.9%
same,"% inhibition of IgE binding, patient 10",[11],8.6%
same,"% inhibition of IgE binding, patient 12",[11],44.9%
same,"% inhibition of IgE binding, patient 13",[11],35%
same,"% inhibition of IgE binding, patient 16",[11],18.4%
same,"% inhibition of IgE binding, patient 17",[11],43%
same,"% inhibition of IgE binding, patient 18",[11],40.9%
same,"% inhibition of IgE binding, patient 19",[11],33.6%
same,"% inhibition of IgE binding, patient 20",[11],33.9%
same,"% inhibition of IgE binding, patient 21",[11],6%
same,"% inhibition of IgE binding, patient 22",[11],53.7%
same,"% inhibition of IgE binding, patient 23",[11],21.1%
same,"% inhibition of IgE binding, patient 24",[11],36%
same,"% inhibition of IgE binding, patient 25",[11],57.6%
same,"% inhibition of IgE binding, patient 26",[11],22%
same,"% inhibition of IgE binding, patient 27",[11],31.2%
same,"% inhibition of IgE binding, patient 28",[11],45.1%
same,"% inhibition of IgE binding, patient 29",[11],39.6%
same,"% inhibition of IgE binding, patient 30",[11],29.5%
same,mean % inhibition of patients' IgE binding,[11],29.1%
same,"% inhibition of IgE binding, patient 1",[12],60.9%
same,"% inhibition of IgE binding, patient 5",[12],27.6%
same,"% inhibition of IgE binding, patient 7",[12],42.2%
same,"% inhibition of IgE binding, patient 9",[12],52.8%
same,"% inhibition of IgE binding, patient 10",[12],41.7%
same,"% inhibition of IgE binding, patient 11",[12],51.3%
same,"% inhibition of IgE binding, patient 12",[12],61.4%
same,"% inhibition of IgE binding, patient 13",[12],50.5%
same,"% inhibition of IgE binding, patient 16",[12],49.2%
same,"% inhibition of IgE binding, patient 17",[12],51%
same,"% inhibition of IgE binding, patient 18",[12],57.4%
same,"% inhibition of IgE binding, patient 19",[12],54.6%
same,"% inhibition of IgE binding, patient 20",[12],15.8%
same,"% inhibition of IgE binding, patient 21",[12],44.9%
same,"% inhibition of IgE binding, patient 22",[12],62.9%
same,"% inhibition of IgE binding, patient 23",[12],47.3%
same,"% inhibition of IgE binding, patient 24",[12],44.3%
same,"% inhibition of IgE binding, patient 25",[12],62.9%
same,"% inhibition of IgE binding, patient 26",[12],50.6%
same,"% inhibition of IgE binding, patient 27",[12],62.1%
same,"% inhibition of IgE binding, patient 29",[12],38.8%
same,"% inhibition of IgE binding, patient 30",[12],56.8%
same,mean % inhibition of patients' IgE binding,[12],45%
same,"Bet v 1-induced basophil activation (CD203c upregulation), blood of patient #12; Bet v 1 pre-incubated with H3-1 against control ScFv",[13],~5 fold
same,"Bet v 1-induced basophil activation (CD203c upregulation), blood of patient #14; Bet v 1 pre-incubated with H3-1 against control ScFv; augmentation, not reduction",[13],~5 fold
same,"Bet v 1-induced basophil activation (CD203c upregulation), blood of patient #22; Bet v 1 pre-incubated with H3-1 against control ScFv",[13],~25 fold
same,"Bet v 1-induced basophil activation (CD203c upregulation), blood of patient #26; Bet v 1 pre-incubated with H3-1 against control ScFv",[13],~5 fold
